For data set [1], the system named is Gp59 (cI repressor, phage VP882) (Vibrio phage VP882). Briefly: cell_activity. The following applies: Pq-lux in E. coli, arabinose induced; direct binding inferred.
Data set [2] concerns the target T1, lambda HALO-cI (HIS-HALO-cIlambda) (phage lambda, UniProt P03034 2-237).
T1 construct: also called lambda cI; lambda repressor; not shown: N-terminal HIS-HALO tag and linker from vector pH6HTN
T1 sequence: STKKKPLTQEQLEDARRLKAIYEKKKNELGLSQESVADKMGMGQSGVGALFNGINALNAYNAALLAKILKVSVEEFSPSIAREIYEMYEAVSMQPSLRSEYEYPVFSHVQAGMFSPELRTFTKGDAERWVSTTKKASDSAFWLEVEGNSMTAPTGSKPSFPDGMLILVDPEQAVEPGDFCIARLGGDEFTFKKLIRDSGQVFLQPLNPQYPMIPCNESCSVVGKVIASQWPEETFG
Briefly: confocal microscopy of HALO-cI localization in E. coli with induced orf584.

Data set [3] has as its target T1, lambda HALO-cI (HIS-HALO-cIlambda). Briefly: confocal microscopy of HALO-cI localization in E. coli co-expressing Qtip.

On to Pq (q/gp62 promoter), for which the activity (fold repression) in data set [1] amounted to 140.

B1: ORF584 (Qtip-like protein of phage MJ1) (other)
chain: MDLRVSNAKDLLDKFEEKAVQMESISQLLANAPEDLTLATVQGSLSALASIARDAGEAADRLRTISSAEG
notes: also called phage MJ1 orf584; pTetA-orf584
B1: the binding result in data set [2] is listed as “no binding”.

B2: Qtip (Gp55 of phage VP882, quorum triggered inactivator of cI protein) (other)
chain: MCDFCSEHIDSLDALQSSLEKGTAIIELLDTALSAGIEVSPRVVSCALSAAHQHLQVSEKINRSLQIGCGSKEVLRLVD
notes: also called phage VP882 Qtip; pTetA-qtip
On to B2, for which the binding result in data set [3] is recorded as “no binding”.

Source of the values: patent US20220010284A1 (TRUSTEES OF PRINCETON UNIVERSITY, published 2022).
